The target of assay [1] is mouse CRF receptor type 2β (mouse) (UniProt Q60748). Put plainly: radioligand displacement ([125I-Tyr0,Glu1,Nle17]-sauvagine), CHO membranes.
The target in assay [2] is rat CRF receptor type 2α (rat) (UniProt P47866). Described as above.

pKi: −log10 of the molar value.

rat CRF receptor type 2α (rat), sequence (P47866 20-411): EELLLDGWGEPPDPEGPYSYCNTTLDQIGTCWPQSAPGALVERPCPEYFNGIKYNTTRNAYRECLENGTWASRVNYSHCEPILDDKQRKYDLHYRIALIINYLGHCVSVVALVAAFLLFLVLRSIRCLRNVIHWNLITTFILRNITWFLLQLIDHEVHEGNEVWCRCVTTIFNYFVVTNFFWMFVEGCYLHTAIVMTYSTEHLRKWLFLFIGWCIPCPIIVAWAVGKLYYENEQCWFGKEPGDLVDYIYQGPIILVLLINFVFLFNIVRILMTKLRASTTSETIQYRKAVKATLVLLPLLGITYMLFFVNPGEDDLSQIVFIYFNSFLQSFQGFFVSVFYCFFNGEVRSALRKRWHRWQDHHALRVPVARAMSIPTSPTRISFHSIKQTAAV

In general, pKi refers to −log10 of the Ki, conventionally taken in molar units. Lower therefore signals a high Ki. Consider “CRF (rat/human) (from UniProt P06850 154-194) (peptide)”, for which the values for the negative logarithm of the Ki (pKi) in assay [1] and in assay [2] were 8.28 and 8.00, respectively.

In the case of “Urocortin (rat) (from UniProt P55090 81-120) (peptide)”, the figures for the negative logarithm of the Ki (pKi) in assay [1] and in assay [2] were 9.21 and 8.66, respectively.

Source of the values: patent publication US20040143095A1.
